This is an account of results in patent US9266964.

First the molecules themselves.
B1: M195-G02 (Fab, V domains shown)
VH: EVQLLESGGGLVQPGGSLRLSCAASGFTFSPYNMMWVRQAPGKGLEWVSSIWPSGGTTDYADSVKGRFTISRDNSKNTLYLQMNSLRAEDTAVYYCAYRRTGIPRRDAFDIWGQGTMVTVSS
VL: DIQMTQSPSTLSASVGDRVTITCRASQSISSWLAWYQQKPGKAPNLLIYKASTLESGVPSRFSGSGSGTEFTLTISSLQPDDFATYYCQQYNTYWTFGQGTKVEIK
B2: M199-A11 (Fab, V domains shown)
VH: B1 VH with P31H, N33I, S50G, W52Y, P53S, T57I, D59V, T101R
VL: B1 VL
B3: M200-B01 (Fab, V domains shown)
VH: B1 VH with P31H, N33I, S50G, W52Y, P53S, T57I, D59V, I111S
VL: B1 VL
B4: M199-B01 (Fab, V domains shown)
VH: B1 VH with P31H, N33I, S50G, W52Y, P53S, T57I, D59V, Y98F, I111N
VL: B1 VL
B5: M198-H09 (Fab, V domains shown)
VH: B1 VH with P31I, N33L, M35I, S50Y, W52G, T57P, D59E
VL: B1 VL
B6: M195-A12 (Fab, V domains shown)
VH: B1 VH with N33M, S50G, W52Y, T57Y, D59V
VL: B1 VL
B7: M195-F12 (Fab, V domains shown)
VH: B1 VH with P31H, N33V, S50Y, W52V, T57V, D59A
VL: B1 VL
B8: M198-G03 (Fab, V domains shown)
VH: EVQLLESGGGLVQPGGSLRLSCAASGFTFSQYTMVWVRQAPGKGLEWVSWIYSSRANYADSVKGRFTISRDNSKNTLYLQMNSLRAEDTAVYYCAYRRTGIPRRDAFDIWGQGTMVTVSS
VL: B1 VL
B9: M201-A06 (Fab, V domains shown)
VH: B1 VH with P31H, N33I, S50G, W52Y, P53S, T57I, D59V, A108V
VL: B1 VL
B10: M202-E03 (Fab, V domains shown)
VH: B1 VH with P31H, N33I, S50G, W52Y, P53S, T57I, D59V, D110E
VL: B1 VL
B11: M196-G12 (Fab, V domains shown)
VH: B1 VH with P31N, N33S, M35D, S50R, W52Y, P53S, T57G, D59I
VL: B1 VL
B12: M196-D02 (Fab, V domains shown)
VH: B1 VH with P31V, N33S, M35H, S50V, W52G, T57I, D59L
VL: B1 VL
B13: M195-E12 (Fab, V domains shown)
VH: B1 VH with P31Y, N33I, M35F, S50Y, W52S, T57Y, D59H
VL: B1 VL
B14: M197-C12 (Fab, V domains shown)
VH: B1 VH with N33D, M35L, S50Y, W52V, P53S, T57L, D59K
VL: B1 VL
B15: M202-A08 (Fab, V domains shown)
VH: B1 VH with P31H, N33I, S50G, W52Y, P53S, T57I, D59V, R106W
VL: B1 VL
B16: M200-F01 (Fab, V domains shown)
VH: B1 VH with P31H, N33I, S50G, W52Y, P53S, T57I, D59V, T101M, D107N
VL: B1 VL

Where a chain is given by its changes, count along the chain named.

The target of this assay is human plasma kallikrein (human, UniProt P03952 20-390; P03952 391-638). Kind of assay: cell-based or functional assay.
human plasma kallikrein, sequence (P03952 20-390, chain 1 of 2): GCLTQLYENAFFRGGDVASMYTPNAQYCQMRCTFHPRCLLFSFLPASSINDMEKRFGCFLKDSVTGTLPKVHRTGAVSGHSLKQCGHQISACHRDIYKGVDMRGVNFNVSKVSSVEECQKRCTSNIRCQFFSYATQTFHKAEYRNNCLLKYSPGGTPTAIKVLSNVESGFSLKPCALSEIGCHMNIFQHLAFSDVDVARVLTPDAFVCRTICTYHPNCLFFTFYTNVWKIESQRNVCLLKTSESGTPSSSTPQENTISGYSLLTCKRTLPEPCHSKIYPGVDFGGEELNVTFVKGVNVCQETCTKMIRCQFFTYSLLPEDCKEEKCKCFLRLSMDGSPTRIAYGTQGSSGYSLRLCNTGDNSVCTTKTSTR
human plasma kallikrein, sequence (P03952 391-638, chain 2 of 2): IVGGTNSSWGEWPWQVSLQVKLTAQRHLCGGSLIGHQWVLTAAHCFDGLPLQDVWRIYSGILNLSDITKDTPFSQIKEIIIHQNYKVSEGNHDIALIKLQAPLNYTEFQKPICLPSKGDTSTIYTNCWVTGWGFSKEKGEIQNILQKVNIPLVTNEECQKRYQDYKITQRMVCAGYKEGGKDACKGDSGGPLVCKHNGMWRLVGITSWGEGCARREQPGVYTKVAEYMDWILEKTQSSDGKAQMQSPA
In general, % inhibition refers to the drop in the measured response relative to a control, in per cent. Low values mean a weak effect, high ones a strong effect. As to B1, the “% inhibition at 10 nM” value is 67.5%.

B2: the “% inhibition at 10 nM” value came to 65.4%.

B3: the “% inhibition at 10 nM” value was found to be 42.6%.

With B4, the “% inhibition at 10 nM” value was determined as 53.4%.

For the molecule B5, the “% inhibition at 10 nM” value was 41.1%.

As for B6, the “% inhibition at 10 nM” value is 51.7%.

Regarding B7, the “% inhibition at 10 nM” value worked out at 45.5%.

As to B8, the “% inhibition at 10 nM” value turned out to be 53.8%.

Take B9: the “% inhibition at 10 nM” value is 36.8%.

As for B10, the “% inhibition at 10 nM” value stood at 51.4%.

As for B11, the “% inhibition at 10 nM” value worked out at 51.1%.

As to B12, the “% inhibition at 10 nM” value was found to be 66.2%.

Consider B13, for which the “% inhibition at 10 nM” value came to 38%.

As to B14, the “% inhibition at 10 nM” value amounted to 56.4%.

For B15, the “% inhibition at 10 nM” value came to 52.9%.

For the molecule B16, the “% inhibition at 10 nM” value was found to be 65.1%.
